B1: pVII (f1 phage minor capsid protein) (natural protein, f1 filamentous phage, UniProt P69534 1-33, looked up)
chain: MEQVADFDTIYQAMIQISVVLCFALGIIAGGQR

How the values were obtained:
[1] = molecular target: B1; assay: cryo-EM structure
cryo-EM structure = molecular target: the molecule itself; assay: cryo-EM structure

| Binder | binding result [1] | stoichiometry N (cryo-EM structure) |
| --- | --- | --- |
| MSVLVYSFASFVLGWCLRSGITYFTRLMETSS (natural protein, f1 filamentous phage, UniProt P69537 1-32, looked up) [pIX (f1 phage minor capsid protein)] | binds |  |
| pVI (f1 phage minor capsid protein) (natural protein, f1 filamentous phage, UniProt P69531 1-112, looked up) MPVLLGIPLLLRFLGFLLVTLFGYLLTFLKKGFGKIAIAISLFLALIIGLNSILVGYLSDISAQLPSDFVQGVQLILPSNALPCFYVILSVKAAIFIFDVKQKIVSYLDWDK |  | 5 |
| B1 |  | 5 |

Reference: doi:10.1101/2022.11.03.514279 (bioRxiv, 2022)
